In US12540197B2, “Anti-tissue factor antibodies and antibody conjugates, compositions comprising anti-tissue factor antibodies or antibody conjugates, and methods of making and using anti-tissue factor antibodies and antibody conjugates” (SUTRO BIOPHARMA, INC., priority 2023, dated 2026):

B1: 49 (antibody)
heavy: MQVQVQESGPGLVKPPGTLSLTCAVSGFSLSYYGVSWVRQPPGKGLEWIGTIDSSGRTYYNPSLKSRVTISNDNAPNTVSLKLSSVTAADTAVYYCARDFYGWNSGALDIWGQGTLVTVSSASTKGPSVFPLAPSSKSTSGGTAALGCLVKDYFPEPVTVSWNSGALTSGVHTFPAVLQSSGLSLSSVVTVPSSSLGTQTYICNVNHKPSNTKVDKKVEPKSCDKTHTCPPCPAPELLGGPSVFLFPPKPKDTLMISRTPEVTCVVVDVSHEDPEVKFNWYVDGVEVHNAKTKPREEQYNSTYRVVSVLTVLHQDWLNGKEYKCKVSNKALPAPIEKTISKAKGQPREPQVYTLPPSREEMTKNQVSLTCLVKGFYPSDIAVEWESNGQPENNYKTTPPVLDSDGSFLYSKLTVDKSRWQQGNVFSCSVMHEALHNHYTQKSLSLSPGK
light: MDLQLTQSPSTLSASVGDRVTITCRASQSVYSNKYLSWYQQKPGKAPKLLIYKASTLASGVPSRFSGSGSGTEFTLTISSLQPDDFATYYCAAAYSDDSDTAFGQGTKVEIKRTVAAPSVFIFPPSDEQLKSGTASVVCLLNNFYPREAKVQWKVDNALQSGNSQESVTEQDSKDSTYSLSSTLTLSKADYEKHKVYACEVTHQGLSSPVTKSFNRGEC
modifications: pAzMeF at Y180/F404; conjugate
B2: 37 (antibody)
heavy: MEVQLVESGGGLVQPGGSLRLSCAASGFSISSYDMSWVRQAPGKGLEWIGIIGSNGRTYYPDSVKGRFTISRDNSKNTVTLQMNSLRAEDTAVYYCARGLYDGTGNIWGQGTLVTVSSASTKGPSVFPLAPSSKSTSGGTAALGCLVKDYFPEPVTVSWNSGALTSGVHTFPAVLQSSGLSLSSVVTVPSSSLGTQTYICNVNHKPSNTKVDKKVEPKSCDKTHTCPPCPAPELLGGPSVFLFPPKPKDTLMISRTPEVTCVVVDVSHEDPEVKFNWYVDGVEVHNAKTKPREEQYNSTYRVVSVLTVLHQDWLNGKEYKCKVSNKALPAPIEKTISKAKGQPREPQVYTLPPSREEMTKNQVSLTCLVKGFYPSDIAVEWESNGQPENNYKTTPPVLDSDGSFLYSKLTVDKSRWQQGNVFSCSVMHEALHNHYTQKSLSLSPGK
light: MELVMTQSPPTLSLSPGERVTLSCRASQSVYGNNWLSWYQQKPGQAPRLLIYGASKLATSIPARFSGSGSGTQFTLTISSLQPEDFAVYYCQGTYYSGDWYFAFGQGTKVEIKRTVAAPSVFIFPPSDEQLKSGTASVVCLLNNFYPREAKVQWKVDNALQSGNSQESVTEQDSKDSTYSLSSTLTLSKADYEKHKVYACEVTHQGLSSPVTKSFNRGEC
modifications: pAzMeF at Y180/F404; drug conjugate

Columns and labels:
human TF = biological target: T1, human TF (Homo sapiens, UniProt P13726); assay: Biacore off-rate and kinetic binding, human TF; settings: Table 12; 25° C., 1:1 Langmuir
T1 construct: purchased Lake Pharma
T1 sequence (P13726 33-295): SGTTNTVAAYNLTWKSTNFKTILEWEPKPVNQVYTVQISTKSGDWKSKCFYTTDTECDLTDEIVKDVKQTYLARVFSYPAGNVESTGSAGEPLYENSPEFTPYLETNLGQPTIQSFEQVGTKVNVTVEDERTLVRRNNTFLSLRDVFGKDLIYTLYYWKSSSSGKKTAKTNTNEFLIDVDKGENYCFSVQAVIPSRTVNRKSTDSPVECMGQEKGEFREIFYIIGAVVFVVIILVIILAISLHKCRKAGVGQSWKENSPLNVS
Description: (§1) Anti-Fc polyclonal antibodies were immobilized onto a CM4 chip (Cytiva #BR100534) using amine coupling chemistry (Human Antibody Capture Kit, Cytiva #BR100839). The immobilization steps were carried out at a flow rate of 25 μL/min in 1×HBS-EP+buffer (Cytiva #BR100669). The sensor surfaces were activated for 7 min with a mixture of N-hydroxysuccinimide (NHS, 0.05 M) and 1-ethyl-3-(3-dimethylaminopropyl)-carbodiimide (EDC, 0.2 M). The anti-Fc polyclonal antibodies were injected over all 4 flow cells at a concentration of 25 μg/mL in 10 mM sodium acetate, pH 4.5, for 7 min. Ethanolamine (1 M, pH 8.5) was injected for 7 min to block any remaining activated groups. Approximately 6,000 response units (RU) of capture antibody was immobilized on each flow cell.
(§2) Off-rate and kinetic binding experiments were performed at 25° C. using 1×HBS-EP+buffer. Antibodies were injected over the anti-Fc surface at a concentration of 3 μg/mL for 12 seconds at a flow rate of 10 μL/min on flow cells 2, 3 and 4, followed by a buffer wash for 30 seconds at the same flow rate. Single point off-rate analysis was carried out using an antigen concentration of 100 nM. […] After capturing ligand (antibody) on the anti-Fc surface, the analyte (human TF, Lake Pharma; cynomolgus TF, Sino Bio #90885-C08H; mouse TF, R&D Systems #3178-PA) was bound for 180 seconds, followed by a 420 second dissociation phase at a flow rate of 50 μL/min. Between each ligand capture and analyte binding cycle, regeneration was carried out using 2 injections of 10 mM glycine pH 2.0 for 30 seconds at 30 μL/min, followed by a 30 second buffer wash step.
(§3) The data were fit with the Biacore T200 Evaluation software, using a 1:1 Langmuir binding model. KD (affinity, nM) was determined as a ratio of the kinetic rate constants calculated from the fits of the association and dissociation phases.
(§4) Anti-Fc polyclonal antibodies were immobilized onto a CM4 chip (Cytiva #BR100534) using amine coupling chemistry (Human Antibody Capture Kit, Cytiva #BR100839). The immobilization steps were carried out at a flow rate of 25 μL/min in 1×HBS-EP+buffer (Cytiva #BR100669). The sensor surfaces were activated for 7 min with a mixture of NHS (0.05 M) and EDC (0.2 M). The Anti-Fc antibodies were injected over all 4 flow cells at a concentration of 25 ug/ml in 10 mM sodium acetate, pH 4.5, for 7 min. Ethanolamine (1 M, pH 8.5) was injected for 7 min to block any remaining activated groups. Approximately 6,000 response units (RU) of capture antibody was immobilized on each flow cell. Off-rate and kinetic binding experiments were performed at 25° C. using 1×HBS-EP+buffer. Antibodies or ADCs were injected over the anti-Fc surface at a concentration of 3 μg/mL for 12 seconds at a flow rate of 10 μL/min on flow cells 2, 3 and 4, followed by a buffer wash for 30 seconds at the same flow rate. […] After capturing ligand (antibody) on the anti-Fc surface, the analyte (human TF, Lake Pharma; cynomolgus TF, Sino Bio #90885-C08H; mouse TF, R&D Systems #3178-PA) was bound for 180 seconds, followed by a 420 second dissociation phase at a flow rate of 50 μL/min. Between each ligand capture and analyte binding cycle, regeneration was carried out using 2 injections of 10 mM Glycine pH 2.0 for 30 seconds at 30 μL/min, followed by a 30 second buffer wash step. The data was fit with the Biacore T200 Evaluation software, using a 1-1 Langmuir binding model. KD (affinity, nM) was determined as a ratio of the kinetic rate constants calculated from the fits of the association and dissociation phases.

cynomolgus TF = assay: Biacore off-rate and kinetic binding, cynomolgus TF; settings: Table 12; 25° C., 1:1 Langmuir
Chain of cynomolgus TF (as listed by the source): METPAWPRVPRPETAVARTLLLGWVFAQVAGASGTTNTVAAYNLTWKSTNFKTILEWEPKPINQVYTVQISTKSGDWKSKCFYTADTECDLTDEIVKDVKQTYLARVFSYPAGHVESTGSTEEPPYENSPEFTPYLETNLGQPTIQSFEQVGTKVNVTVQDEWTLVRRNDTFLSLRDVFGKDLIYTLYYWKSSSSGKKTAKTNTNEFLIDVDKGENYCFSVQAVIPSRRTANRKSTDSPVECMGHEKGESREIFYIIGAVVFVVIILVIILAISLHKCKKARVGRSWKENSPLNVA
Description: as §1, §2, §3, §4

HEK293T = assay: FACS cell-binding assay on parental HEK293T cells; settings: Table 16, parental cells
Excerpt: HEK293T, BxPC3 cells (TF positive) and NCI-H1703 (TF negative) cells were obtained from ATCC (American Type Culture Collection) and maintained in DMEM:F12 (1:1), high glucose (Corning) supplemented with 10% heat-inactivated fetal bovine serum (ThermoScientific), 1× Penicillin/Streptomycin (Corning) and 2 mmol glutamax (Thermo Fisher Scientific). To generate cells that stably expressing human tissue factor (HEK293T-humanTF) or cynomolgus tissue factor (HEK293T-cynoTF), HEK293T cells were transfected with plasmid vectors that contain the corresponding protein sequence and stable clones were selected with puromycin.
For a fluorescence-activated cell sorting (FACS) cell-binding assay, cells were collected by Accutase and counted by the Vi-CELL Cell Viability Analyzersharvested and, then re-suspended in FACS buffer (DPBS buffer supplemented with 1% bovine serum albumin). A total of 200,000 cells in 100 μL were incubated on ice with 100 μL of anti-TF antibodies in each well of a 96-well plate. Cells were washed twice with ice-cold FACS buffer and then incubated on ice for 60 mins with 5 μg/mL Alexa 647-labeled donkey anti-human Fc antibody (Jackson ImmunoResearch). Unstained cells and cells stained with secondary antibody alone were used as controls. Cells were washed twice with FACS buffer and analyzed using a BD FACS Canto system. Geometric mean fluorescence intensities (MFI) were fitted using non-linear regression analysis with one site specific binding equation on GraphPad Prism (GraphPad Software; La Jolla, CA).

[1] = tested on: primary human keratinocytes; assay: Cell binding on primary adult human keratinocytes (flow cytometry); settings: Table 29, primary human keratinocytes
Description: Since TF is expressed in human skin, anti-TF antibody 2900-A02 and 2842-B01-Hc3/Lc2 were tested in cell binding assay on primary adult human keratinocyte cells purchased from Thermo Fisher Scientific. Keratinocytes were cultured in defined keratinocyte culture medium (EpiLife Medium, Thermo Fisher Scientific) supplemented with growth supplement S7 (S0175 from Thermo Fisher Scientific) and Penicillin/Streptomycin on plates coated with keratinocyte coating matrix (Thermo Fisher Scientific).
To evaluate antibody binding activity of the anti-TF antibodies on the adult primary keratinocytes, a total of 100,000 keratinocytes per well were incubated on ice with serial dilutions of anti-TF antibodies in FACS buffer (PBS buffer supplemented with 1% bovine serum albumin, 0.05% sodium azide) for 60 minutes. Cells were washed twice with ice-cold FACS buffer and then incubated with 5 microgram/mL Alexa 647 labeled donkey anti-human Fc antibody (Jackson ImmunoResearch, West Grove, PA) on ice for another 60 minutes. Unstained cells and cells stained with secondary antibodies alone were used as controls. Samples were then washed twice using FACS buffer and analyzed using an Attune flow cytometer (Thermo Fisher). Geometric mean fluorescence intensities were fitted using non-linear regression analysis with one site specific binding equation on GraphPad Prism.

[2] = tested on: primary human keratinocytes; assay: ADC cell killing on primary adult human keratinocytes (WST-8); format: cell-based; settings: Table 30, 120 hours, read-out: Keratinocyte Killing EC50
Description: To evaluate the cytotoxicity effects of the ADC on the adult primary keratinocytes, a total of 2000 keratinocytes in a volume of 50 microliters were seeded in a 96-well flat bottom cell culture plate coated with keratinocyte coating matrix (Thermo Fisher Scientific) the day before the actual assay starts. ADCs were formulated at 2× starting concentration in cell culture medium and filtered through SpinX 0.22 micron cellulose acetate filtered 2 mL centrifuge tubes (Corning Costar). Filter sterilized samples were serial diluted (1:3) under sterile conditions and added onto cells in triplicates. Plates were cultured at 37° C. in a CO2 incubator for 120 hours. For cell viability measurement, 10 microliters of WST-8 reagent (VWR) were added into each well and plates were incubated at 37° C. in a CO2 incubator for 4 hours. […] Data was fitted with non-linear regression analysis, using log (inhibitor) vs. response, variable slope, 4-parameter fit equation using GraphPad Prism. Data was expressed as % relative cell viability vs. dose of free linker-warhead or ADC in nanomolar with error bars indicating the Standard Deviation (SD) of the triplicates.

| Molecule | Biacore human TF kinetics ka (human TF) [M⁻¹ s⁻¹] | Biacore human TF kinetics kd (human TF) [s⁻¹] | Biacore cynomolgus TF kinetics ka (cynomolgus TF) [M⁻¹ s⁻¹] | Biacore cynomolgus TF kinetics kd (cynomolgus TF) [s⁻¹] | HEK293T Bmax (MFI) (HEK293T) | Keratinocyte Binding Bmax [1] | EC50 [2] [nM] |
| --- | --- | --- | --- | --- | --- | --- | --- |
| B1 | 62500 | 0.000865 | 80800 | 0.00241 | 1366 | – | – |
| B2 | 57200 | 0.000418 | 72400 | 0.00113 | 1062 | 151831 | > 100 |
